Patent US12390535B2, “Method of making oral dosage forms” (UNIVERSITÄT HEIDELBERG, priority 2018, dated 2025)

Assay: Zetasizer measurement of zeta potential of liposomes
Type: physicochemical
Conditions: CPP coupled after liposome preparation, eight equivalents relative to first lipid (FIG. 1)
Method: The zeta potential can be determined by methods known in the art. The zeta potential may be determined after dilution of the liposomes to a lipid concentration of 0.95 mg/ml using a 50 mM phosphate buffer with a pH of 7.4. The default settings of the automatic mode of the Zetasizer Nano ZS from Malvern™ (Malvern Instruments Ltd., Worcestershire, United Kingdom) can be chosen as follows: number of measurements=3; run duration=10 s; number of runs=10; equilibration time=60 s; refractive index solvent 1.330; refractive index polystyrene cuvette 1.590; viscosity=0.8872 mPa s; temperature=25° C.; dielectric constant=78.5 F/m; backscattering mode (173°); automatic voltage selection; Smoluchowski equation.
The particle size, PDI and zeta potential of all liposomal formulations were determined at room temperature using a zetasizer Nano ZS from Malvern™ (Malvern Instruments Ltd., Worcestershire, United Kingdom). Size and PDI were measured after dilution to a lipid concentration of 0.076 mg/ml with a 10 mM phosphate buffer with a pH of 7.4 using the automatic mode. The zeta potential was determined after dilution to a lipid concentration of 0.95 mg/ml by a 50 mM phosphate buffer with a pH of 7.4. […]

RRRRRRRRRC (cyclo(RRRRRRRRRC); also: coupled to liposomes) [R9C, here coupled to liposomes after their preparation]
zeta potential: only slightly positive
